Experimental data taken from the RNAGym collection of RNA variant scans (doi:10.1021/acssynbio.7b00057).

B1: Pistol ribozyme (parent)
chain: GGGUCGUUGUUCCAUAAUCGCGUGGAUAUGGCACGCAAGUUUCUACCGGGCACCGUAAAUGUCCGACUGGAGCCGUUCGGGCGGCUAUAAACAGACCUCAGGCCCGAAGCGUGGCGGCACCUGCCGCCGGUGGUAAAAAAGAUCGGAAGAGCACACGUCU

Variants of: B1
Assay: aptazyme ON/OFF ratio, guanine; higher = stronger switching; co-transcriptional cleavage with and without guanine

Variant	aptazyme ON/OFF ratio
U7C U8A G9A U10G U11A C12G C13U	1.24
U7C U8A G9A U10G U11A C12G C13A	1.06
U7C U8A G9A U10G U11A C12G C13G	1.07
U7C U8A G9A U10A U11A C12G C13G	1.28
U7C U8A G9A U10A U11A C12G C13A	1.2
U7C U8A G9A U10A U11A C12G C13U	1.22
U7C U8A G9A U10C U11C C12A C13A	1.03
U7C U8A G9A U10C U11C C12A C13U	1.09
U7C U8A G9A U10C U11C C12A C13G	1.05
U7C U8A G9A U10C U11G C12G C13A	1.24
U7C U8A G9A U10C U11G C12G C13G	1.12
U7C U8A G9A U10C U11G C12G C13U	1.11
U7C U8A G9A U10A U11G C12U	1.14
U7C U8A G9A U10A U11G C12A	1.05
U7C U8A G9A U10A U11G C12G	1.12
U7C U8A G9A U10G U11C C12A C13A	1.15
U7C U8A G9A U10G U11C C12A C13U	1.18
U7C U8A G9A U10G U11C C12A C13G	1.1
U7C U8A G9A U10C U11G C12A	1.05
U7C U8A G9A U10C U11G C12U	1.22
U7C U8A G9A U10C U11G C12G	1.31

Variant	aptazyme ON/OFF ratio
U7C U8A G9A U10G U11A C12U C13G	1.12
U7C U8A G9A U10G U11A C12U C13U	1.06
U7C U8A G9A U10G U11A C12U C13A	1.11
U7C U8A G9A U10C C12G C13U	1.19
U7C U8A G9A U10C C12G C13A	1.13
U7C U8A G9A U10C C12G C13G	1.1
U7C U8A G9A U10A U11G C12A C13A	1.11
U7C U8A G9A U10A U11G C12A C13U	1.18
U7C U8A G9A U10A U11G C12A C13G	1.09
U7C G9U U11C C12A C13U	1.14
U7C G9U U11C C12A C13G	1.07
U7C G9U U11C C12A C13A	1.15
U7C U8A G9A U10A C12U C13G	1.14
U7C U8A G9A U10A C12U C13U	1.28
U7C U8A G9A U10A C12U C13A	1.15
U7C U8A G9A U10C U11C C12U C13G	1.04
U7C U8A G9A U10C U11C C12U C13U	1.04
U7C U8A G9A U10C U11C C12U C13A	1.03
U7C U8A	3.27
U7C U8A G9A U10C U11G C13U	1.1
U7C U8A G9A U10C U11G C13G	1.13

Variant	aptazyme ON/OFF ratio
U7C U8A G9A U10C U11G C13A	1.15
U7C U8A G9A U10G C13A	1.17
U7C U8A G9A U10G C13U	1.39
U7C U8A G9A U10G C13G	1.08
U7C G9U U11G C13A	1.21
U7C G9U U11G C13U	1.15
U7C G9U U11G C13G	1.03
U7C U8A G9A U10C U11C C12A	1.09
U7C U8A G9A U10C U11C C12U	1.04
U7C U8A G9A U10C U11C C12G	1.09
U7C G9U U10G U11G C12U C13U	1.11
U7C G9U U10G U11G C12U C13G	1.13
U7C G9U U10G U11G C12U C13A	1.07
U7C U8A C12A C13A	1.34
U7C U8A C12A C13G	1.09
U7C U8A C12A C13U	1.39
U7C U8A G9A U10G U11G C12A C13U	1.23
U7C U8A G9A U10G U11G C12A C13G	1.14
U7C U8A G9A U10G U11G C12A C13A	1.19
U7C U8A G9A U10C U11A C12U C13A	1.17
U7C U8A G9A U10C U11A C12U C13G	1.15

Variant	aptazyme ON/OFF ratio
U7C U8A G9A U10C U11A C12U C13U	1.11
U7C U8A C12U C13A	1.17
U7C U8A C12U C13U	1.32
U7C U8A C12U C13G	1.28
U7C U8A G9A U10A U11C C12U C13U	1.1
U7C U8A G9A U10A U11C C12U C13G	1.06
U7C U8A G9A U10A U11C C12U C13A	1.09
U7C G9U U10G U11C C12U C13G	1.05
U7C G9U U10G U11C C12U C13U	1.19
U7C G9U U10G U11C C12U C13A	1.19
U7C U8A G9A U10A U11G C13U	1.25
U7C U8A G9A U10A U11G C13A	1.16
U7C U8A G9A U10A U11G C13G	1.02
U7C U8A G9A	1.22
U7C U8A G9A U10A U11C C12G C13G	1.35
U7C U8A G9A U10A U11C C12G C13A	1.14
U7C U8A G9A U10A U11C C12G C13U	1.18
U7C G9U U11C C12G C13A	1.05
U7C G9U U11C C12G C13G	1.06
U7C G9U U11C C12G C13U	1.07
